The text below walks through data of US20260234204A1, “BRK PEPTIDES AND METHODS OF USE” (Concarlo Therapeutics, Inc., priority 2023, published 2026).

Common to all, as to format: cell-based
For test [1], the system named is PDAC cell lines. In words: Rescue of IpY.20 effect on viability by pretreatment with inhibitors. As to the method:
When the less sensitive PDAC lines were treated with IpY.20, pRIPK1 expression, a marker of necroptosis, increased (FIG. 3A). To determine if ROS-dependent induction of pRIPK1 and necroptosis was responsible for IpY.20's effect in PDAC cell lines, cells lines (A-D) were treated with N-acetyl-1-cysteine (5 mM) a ROS inhibitor, Necrostatin-1 (10 μM) which prevents RIPK1 phosphorylation and Caspase-3/7 Inhibitor, for 24 h, followed by IpY.20 for the next 24 h. N=4 *p<0.05.
(§1) When these lines were pre-treated with NAC, Nec-1, or Caspase 3/7 inhibitor followed by IpY.20 treatment, differential results were observed. N=4 *p<0.05 (FIGS. 4A-4D). NAC treatment of BxPC3 cells reduced ROS levels (FIG. 4B), but these cells were rescued by caspase treatment (FIG. 4C). […] Percent viability relative to control plotted in all cases. L3.6 (FIG. 4E), PL45 (FIG. 4F) and Panel (FIG. 4G) were rescued by NEC-1, NAC and caspase inhibition to differing extents. Biomarkers dictating response were determined.

In test [2] the test system is PDAC cell lines. The test can be described thus: ROS-Glo assay in PDAC cells. As to the method: (§2) FIGS. 2A-2F. FIGS. 2A and 2B are Western Blots, illustrating results from assays performed with treatment naive cells to analyze the expression levels of p27. Cells were harvested with RIPA buffer supplemented with protease inhibitors. The MCF7-ALT Dox inducible cell line was used as a control. […] Cells were treated with increasing concentrations of IpY.20 for 24h. Viability was measured using the Cell Titer Glo assay (Promega). Viability was calculated relative to untreated control cells. N=4 *p<0.05. […] FIGS. 2D, 2E and 2F are graphs illustrating that IpY.20 induces ROS. Cells were treated with IpY.20 for 24 h. ROS levels were measured using ROS-Glo assay (Promega). % ROS was calculated relative to untreated control cells. N=4 *p<0.05. The MCF7-ALT inducible cell line induced ROS.

Test [3] deals with Pancreatic Ductal Adenocarcinoma (PDAC) cell lines. The test can be described thus: Cell viability (Cell Titer Glo) in PDAC cell lines. How it is done:
FIGS. 1A-1D. FIGS. 1A and 1B are respectively a graph and an image showing that PDAC cells are resistant to palbociclib-treatment. Cells were treated with increasing concentrations of palbociclib (PD) for 24 h before analysis for viability (Cell Titer Glo, Promega). N=4 *p<0.05. Control=untreated cells. Viability plotted relative to growth in the presence of control. FIGS. 1C and 1D show PL5 cells treated with increasing concentrations of IpY.20 and E′NP before analysis of Cell Titer Glo analysis.
as §2, with “Cells were treated with IpY.20 for 24 h.” left out, “N=4 *p<0.05. The MCF7-ALT inducible cell line induced ROS.” left out
To test whether PDAC cells might be resistant to CDK4/6 inhibition due to activation of CDK2, experiments were performed. […] Some non-specific liposome toxicity was detected at the high concentrations. […]
In general terms: Cellular ATP, detected with luciferase, serves as a proxy for viable cell number.

The subject of test [4] is pRIPK1. In words: pRIPK1 expression (marker of necroptosis).
Test [5] relates to BxPC3. In words: Caspase-Glo 3/7 Assay for apoptosis. As to conditions: treated 24 h.
Text: as §1

Test [6] deals with CDK4i-resistant and treatment naive breast cancer cells. In words: Arrest of breast cancer cells.
Setting [7] is: L3.6, PL45 and Panel, to differing extents.
The mark [8] stands for this setting: PDAC lines that increased pRIPK1, pretreatment 24 h, then IpY.20 24 h.

As to `CN1C(=O)C(Cc2c[nH]c3ccccc23)NC1=S` (stereo not drawn) [Nec1, Necrostatin-1], the “rescue from IpY.20 effect” value in test [1] (setting [7]) and in test [1] (setting [8]) was “rescued” each time.
In the case of `CC(=O)N[C@@H](CS)C(=O)O` [NAC, N-acetyl-1-cysteine], the ROS levels result in test [2] (BxPC3 cells, pretreatment followed by IpY.20) is recorded as “reduced”. Besides, the “rescue from IpY.20 effect” value in test [1] (setting [7]) and in test [1] (setting [8]) was “rescued” in each case.

B1: IpY.20: smaller and more stable variant of ALT, SEQ ID NO: 6; tested as liposomal IpY.20 (peptide)
chain: MVSRDQAHLGPKYVGLWDFKSRTDEELSFRAGDVFHVARKEEQWWWATLLDEAGGAVAQGYVPHNYLAERETVESEPAGHAGSAALQDLAA
modifications: liposomal formulation
Take B1: in test [3] (PL5, Panc1, L3.6 and BXPC3), the sensitivity to treatment entry is “super sensitivity”. Also, in test [3] (increasing concentrations for 24h, relative to untreated control), the “viability of CDK4i resistant pancreatic cell lines” value is “reduces viability”. In test [2] (treated 24 h, relative to untreated control cells), the ROS levels entry is given as “induces ROS”. For the same molecule, the pRIPK1 expression entry was “did not exhibit induction” in test [4] (Super sensitive PDAC lines) and “increased” in test [4] (less sensitive PDAC lines). Besides, the caspase expression entry in test [5] is “strongly induced”. Besides, the “ability to arrest cells” value in test [6] was “behaved similarly to IpY.1”.
